Laboratory results published in patent US20070020257A1.

Biological target: integrins on cell surface of mucosae
Assay: cell-based or functional assay

| Binder | Titer against PAc (intranasal RGD-DUP given together with an excess of RGDS peptide as inhibitor) (titer (maximum serum dilution)) | Titer against PAc (serum of BALB/c mice after intranasal administration of RGD-DUP) (titer (maximum serum dilution)) | Titer against PAc (intranasal YIGSR-DUP given together with an excess of YIGSR peptide as inhibitor) (titer (maximum serum dilution)) | Titer against PAc (serum of BALB/c mice after intranasal administration of YIGSR-DUP) (titer (maximum serum dilution)) |
| --- | --- | --- | --- | --- |
| RGDTYEAALKQYEADLKKTYEAALKQYEADL [RGD-DUP (di unit peptide with the cell attachment motif RGD at the N-terminal region)] | 256 | 5070 | – | – |
| YIGSRTYEAALKQYEADLKKTYEAALKQYEADL [YIGSR-DUP (di unit peptide with the cell attachment motif YIGSR at the N-terminal region)] | – | – | 235 | 1200 |
